The data set deals with the molecule itself. In words: X-ray crystallography, homodimer in the crystal.

B1: recombinant SP-free Coprinus comatus Y3 protein (monomer) (other)
chain: QDPLSCYDNFGNRDVAACARFIDDFCDTLTPNIYRPRDNGQRCYVVNGHKCDFTVFNTNNGGSPIRASTPNCKTVLRAAANRCPTGGRGKINPSAPFLFAIDPNDGDCSTDF
modifications: pyroglutamic acid (PCA) formed from Gln19; four intramolecular disulfide bridges Cys24-Cys101, Cys36-Cys69, Cys61-Cys126, Cys44-Cys90
notes: also called recombinant Y3; mature recombinant Y3 protein
Take B1: the binding result is reported as “binds”.
